Target: pneumolysin (Streptococcus pneumoniae) (UniProt P0C2J9)

Chain of pneumolysin (P0C2J9 whole entry): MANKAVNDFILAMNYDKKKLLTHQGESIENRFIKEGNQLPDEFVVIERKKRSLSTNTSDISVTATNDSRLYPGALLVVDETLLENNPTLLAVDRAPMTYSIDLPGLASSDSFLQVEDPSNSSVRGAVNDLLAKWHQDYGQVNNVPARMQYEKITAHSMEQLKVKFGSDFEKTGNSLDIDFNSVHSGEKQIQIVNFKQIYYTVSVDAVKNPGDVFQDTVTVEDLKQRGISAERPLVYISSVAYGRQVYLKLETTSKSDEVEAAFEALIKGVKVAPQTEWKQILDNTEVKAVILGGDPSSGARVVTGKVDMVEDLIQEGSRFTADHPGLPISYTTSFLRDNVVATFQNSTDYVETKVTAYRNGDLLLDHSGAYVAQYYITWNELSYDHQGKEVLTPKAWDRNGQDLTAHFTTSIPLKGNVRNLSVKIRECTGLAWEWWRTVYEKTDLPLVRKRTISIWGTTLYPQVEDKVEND

## pneumolysin (from UniProt P0C2J9 1-471) (natural protein)
  k0.5 of the reciprocal lag length before lysis of sheep erythrocytes against pneumolysin concentration (fit with Eq. 3), 30.0 °C: 143 nM
  k0.5 of the reciprocal lag length before lysis of sheep erythrocytes against pneumolysin concentration (fit with Eq. 3), 33.0 °C: 176 nM
  k0.5 of the reciprocal lag length before lysis of sheep erythrocytes against pneumolysin concentration (fit with Eq. 3), 35.0 °C: 243 nM
  k0.5 of the reciprocal lag length before lysis of sheep erythrocytes against pneumolysin concentration (fit with Eq. 3), 37.0 °C: 405 nM
  k0.5 of the reciprocal lag length before lysis of sheep erythrocytes against pneumolysin concentration (fit with Eq. 3), 38.5 °C: 266 nM

From PMC4823331
